Results: patent US20190092852A1 (Genentech, published 2019)
Values joined by “and” are separate entries in the source; they are usually repeats but may differ in a detail not shown here. Identical values can stand only once.

T1: cyno IL-33 (cell-based blocking assay of Example 2) (cynomolgus monkey, UniProt A0A2K5W3I1 95-269)
T1 sequence: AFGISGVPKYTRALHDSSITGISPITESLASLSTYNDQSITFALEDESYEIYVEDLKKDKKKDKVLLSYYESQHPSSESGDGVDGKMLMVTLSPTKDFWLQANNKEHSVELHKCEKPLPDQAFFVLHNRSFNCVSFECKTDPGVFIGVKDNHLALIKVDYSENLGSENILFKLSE

T2: human IL-33 (cell-based blocking assay of Example 2) (human, UniProt O95760 112-270)
T2 sequence (looked up): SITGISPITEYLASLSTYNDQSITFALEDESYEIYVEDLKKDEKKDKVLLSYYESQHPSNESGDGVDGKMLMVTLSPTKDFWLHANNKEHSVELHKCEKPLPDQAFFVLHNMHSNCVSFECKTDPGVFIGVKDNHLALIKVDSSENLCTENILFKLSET

T3: human IL-33 (Genentech, huIL33.his) (human, UniProt O95760 112-270)
T3 sequence (looked up): T2 sequence (looked up)

T4: cyno IL-33 (construct not stated) (cynomolgus monkey, UniProt A0A2K5W3I1 112-269)
T4 construct: also called cynomolgus IL-33; cyno IL-33 (Genentech)
T4 sequence: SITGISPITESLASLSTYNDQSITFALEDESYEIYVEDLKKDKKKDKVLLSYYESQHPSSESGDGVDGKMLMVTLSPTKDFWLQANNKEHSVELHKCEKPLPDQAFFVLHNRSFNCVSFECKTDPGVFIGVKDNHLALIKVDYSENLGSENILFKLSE

B1: 10C12 (antibody, V domains shown)
VH: DVNLVESGGGSVKPGGSLKLSCVASGFTFSSFSMSWVRQTPEKRLEWVATISGGKTFTDYVDSVKGRFTISRDDAKNTLYLQMSSLESEDTAMYYCTRANYGNWFFEVWGAGTTVAVSS
VL: DIVLTQSPGFLVVSLGQRATISCRASESVAKYGLSLLNWFQQKPGQPPKLLIFAASNRGSGVPARFSGSGSGTDFSLNIHPMEEDDTAMYFCQQSKEVPFTFGSGTKLEIK
notes: Murine hybridoma clone from IL33 KO mouse
B2: 10H2 (antibody, V domains shown)
VH: EVKLEESGGGLVQPGGSMKLSCVASGFTFSNYWMNWVRQSPEKGLEWMAEITLKFNNYSTHYAESVKGRFSISRDDSKSTVYLQMNNLRAEDTGIYYCARRNYGDWYINVWGAGTTVTVSS
VL: DIVLTQSPTSLAVSLGQRATISCRASESVDKFGMSFLNWFQQKPGQPPKLLIFVASSQGSGVPARFSGSGSGTDFSLNIHPVEEDDTAMYFCQQSKDIPYTFGGGTKLEIK
notes: Murine hybridoma clone (Balb/C)
B3: 6C11 (antibody, V domains shown)
VH: EVKLEESGGGLVQPGGSMKLSCVASGFTFNKFWMNWVRQSPEKGLEWVAEIRLNSINYVKDYAESVKGRFTISRDDSKNSVYLQMNNLRAEDTGIYYCIRRNYGNWFFEIWGAGTTVTVSS
VL: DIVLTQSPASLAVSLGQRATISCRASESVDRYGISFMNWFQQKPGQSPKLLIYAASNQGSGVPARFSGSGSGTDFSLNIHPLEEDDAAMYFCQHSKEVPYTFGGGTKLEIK
notes: as for B2
B4: 10C12.38.H6.87Y.58I (antibody, V domains shown)
VH: EVQLVESGGGLVQPGGSLRLSCAASGFTFSSFSMSWVRQAPGKGLEWVATISGGKTFTDYVDSVKGRFTISRDDSKNTLYLQMNSLRAEDTAVYYCTRANYGNWFFEVWGQGTLVTVSS
VL: EIVLTQSPATLSLSPGERATLSCRASESVAKYGLSLLNWFQQKPGQPPRLLIFAASNRGSGIPARFSGSGSGTDFTLTISSLEPEDFAVYYCQQSKEVPFTFGQGTKVEIK
B5: 2B6 (antibody, V domains shown)
VH: EVLLQQSGPELVKPGASVKISCNASGYTFSDYNMNWVKQSHGKSLESIGDINPKNGDTFYNQNFKDKATLTIDKSSSTVYMELRSLTSEDTAMYYCARHYYYGSSYGGFVYWGQGTLVTVAA
VL: DIQMNQSPSSLSASLGDTITITCHASQNINVWLSWYQQKAGNNPKLLIYAASKLHTGVPSRFTGSGSGTLFTLTISSLQPEDIATYYCQQGQSYPLTFGSGTNLELK
notes: as for B2
B6: 9F6 (antibody, V domains shown)
VH: QVQLQQSGNDLVKPGASVKLSCKASGYTFTSYWINWIKQRPGQGLEWIGRIAPGSGFISYNELFKDKATLTVDTSSSTAYIQLGSLSSEDSAVYFCAREFYYGSFYGGFAYWGQGTLVTVSA
VL: DIQMNQSPSSLSASLGDTITITCHASQNIHVWLSWYQQKPGNIPKLLIYKASTLHTGVPSRFNGSGSGTGFTLTISSLQPEDIATYYCQQGQSSPLTFGAGTKLEVK
notes: as for B2

Target: T1, cyno IL-33 (cell-based blocking assay …)
Assay: cell-based or functional assay

Row | Binder | IC50 (HEK-BLUE SEAP reporter, IL-33 blocking) [pM] | IC90 (HEK-BLUE SEAP reporter, IL-33 blocking)
1 | B1 | 142 | 1290 pM and 0.193 µg/mL
2 | B2 | 17.4 | 271 pM and 0.0407 µg/mL
3 | B3 | > 10000 | > 10000 pM and > 1.5 µg/mL
4 | B4 | 181 | 1220 pM and 0.183 µg/mL

Target: T2, human IL-33 (cell-based blocking assay …)
Assay: cell-based or functional assay

Row | Binder | IC50 (HEK-BLUE SEAP reporter, IL-33 blocking) [pM] | IC90 (HEK-BLUE SEAP reporter, IL-33 blocking)
5 | B1 | 3.9 | 18.2 pM and 0.0027 µg/mL
6 | B2 | 5.3 | 31 pM and 0.0047 µg/mL
7 | B3 | 21.3 | 120 pM and 0.0181 µg/mL
8 | B4 | 2 | 20.5 pM and 0.0031 µg/mL

Target: T3, human IL-33 (Genentech, huIL33.his)
Assay: SPR Biacore

Row | Binder | Kd [pM]
9 | B1 | ≤ 7
10 | B2 | 60
11 | B3 | 60
12 | B4 | 15
13 | B5 | 30
14 | B6 | 70

Target: T4, cyno IL-33 (construct not stated)
Assay: SPR Biacore

Row | Binder | Kd [pM]
15 | B1 | 70
16 | B2 | 90
17 | B3 | 790
18 | B4 | 37
19 | B5 | 330
20 | B6 | 910

Target: T1, cyno IL-33 (cell-based blocking assay …)
Assay: cell-based or functional assay
Remark: another data set of the same source

Row | Binder | Cell assay (cy) IC90
21 | B1 | 0.193 µg/mL and 1.27 nM
22 | B2 | 0.041 µg/mL and 0.27 nM
23 | B3 | > 1.5 µg/mL and > 9.9 nM
24 | B4 | 0.185 µg/mL and 1.22 nM
25 | B5 | 0.526 µg/mL and 3.47 nM
26 | B6 | > 1.5 µg/mL and > 9.9 nM

Target: T2, human IL-33 (cell-based blocking assay …)
Assay: cell-based or functional assay
Remark: another data set of the same source

Row | Binder | Cell assay (hu) IC90
27 | B1 | 0.002 µg/mL and 0.013 nM
28 | B2 | 0.003 µg/mL and 0.02 nM
29 | B3 | 0.021 µg/mL and 0.14 nM
30 | B4 | 0.004 µg/mL and 0.026 nM
31 | B5 | 0.02 µg/mL and 0.13 nM
32 | B6 | 0.011 µg/mL and 0.73 nM
